In the supplement of paper PMC9170038:

Tested on: MS2 coat protein
Test: apparent KD of MS2 coat protein; designed switch direction (-1 OFF switch, 1 ON switch): 1; higher = weaker reporter binding
Method in brief: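 Apparent KD, taken as the median over clusters for each design, was obtained by curve-fitting normalised cluster fluorescence. Designed RNA switches had been transcribed on Illumina chips by stalled E. coli RNA polymerase and titrated with SNAP-549-labelled MS2 coat protein, doubling from 0.7 or 1.5 nM to 3 µM.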

[1] = input ligand: microRNA oligo, concentration not stated
[2] = Eterna round: R95, input ligand: FMN 200 uM
[3] = Eterna round: R95, input ligand: microRNA oligo, concentration not stated
[4] = Eterna round: R95, input ligand: none

Row | Sequence | apparent KD of MS2 coat protein (input ligand: FMN 200 uM) | apparent KD of MS2 coat protein [1] | apparent KD of MS2 coat protein (input ligand: none) | apparent KD of MS2 coat protein [2] | apparent KD of MS2 coat protein [3] | apparent KD of MS2 coat protein [4]
1 | UGGCUCAGAGCAGGAUAUAUGUCUCGAGCUUCGGCUCGAGACAUGAGGAUCACCCAUGUAAUAACAUAGAAGGGCUCUGAGCCU [SSNG2/1-B3] (Eterna round: R96, puzzle: Same State NG 2) | 0.0158 µM | 0.042 µM | 0.0533 µM |  |  | 
2 | GUGGUCAGACAUGAGGAUCACCCAUGUGGAAUAAAUAAGGUUUAGGAUAUGGAAUAUAGGAUAUACCAGAAGGGAGGGUUGGUG (Eterna round: R96, puzzle: Same State NG 3) |  | 0.0904 µM |  |  |  | 
3 | AUCAAUCUAUCUGAGGAUAUCAUGAAAUAAACAUGAGGAUCACCCAUGUGCAGGAAAACUGCAUAUGAGAAGGCAGAUAGAUUGA [salish99_ss2_r3_019] (puzzle: Same State 2) |  |  |  | 0.0639 µM | 0.323 µM | 0.879 µM
4 | GGUCCAUCAUGAGGAUAUGGCACCUUAUUGGUGCCAGAAGGCAUGUCUAUAGACAUGAGGAUCACCCAUGUAAUAAAUUGGACC [Eli NG1ss - 93] (Eterna round: R96, puzzle: Same State NG 1) | 0.0302 µM | 0.344 µM | 0.831 µM |  |  | 
5 | UACUUCAUGUAAGGAUAUGCAGCCGUUUCGGCUGCAGAAGGUACUAUAAUACAUGAGGAUCACCCAUGUCUCUCGCAUUGCGAG [JL SSNG1 1.50] (Eterna round: R96, puzzle: Same State NG 1) | 0.0536 µM | 0.0862 µM | 0.158 µM |  |  | 
6 | GAGUGGCAGUUAGGAUAUAUAGUGAUAAUGAUAAUAGAAGGAACAGACAUGAGGAUCACCCAUGUAGGACUAAUCCAGAGAGAG [Parity 34 - Jieux - Same State NG 1] (Eterna round: R96, puzzle: Same State NG 1) | 0.0323 µM | 0.0217 µM | 0.0283 µM |  |  | 
7 | UUGAUUAGAAGUUAACAUGAGGAUCACCCAUGUAUUGGAUCAGAGGAUAUGCAUGUUUGAUAGUAGCAGAAGGCUGAUGGUGGA [JR_SSNG3_Sub026] (Eterna round: R96, puzzle: Same State NG 3) |  | 0.0398 µM |  |  |  | 
8 | AGUCCAGCGAAAGCUGGACAAAAGUAUGUACAUGAGGAUCACCCAUGUUCAUGUACAAGCUUUUUGCUCGUUUUAAA [JL mod - D95 - 19] (puzzle: Sensor for hsa-mir-208a) |  |  |  | 0.814 µM | 0.0481 µM | 0.928 µM
9 | AGGUUCCUGCUAGGAUAUCUAGGAUAUGGACGAGGAUUACCCGAGCAGGAUUACCGCACCAGAGGAGAGAAGGAGCAACAAGAG [pwkr ssNG2 2F5 2FMN.14] (Eterna round: R96, puzzle: Same State NG 2) | 1.74 µM | 0.37 µM | 0.16 µM |  |  | 
10 | UUAACAUGAGGAUCACCCAUGUAUACGUAGUUUGCAUUUUGACAGGAUAUUGUUUAUCUAUAUAGCAAGAAGGGUCGUUAGUCU [JR_SSNG3_Sub009] (Eterna round: R96, puzzle: Same State NG 3) | 0.027 µM | 0.0318 µM | 0.0419 µM |  |  | 
11 | AACAAUCUAUCUGAGGAUAUCAUGAAAUAAACAUGAGGAUCACCCAUGUGCAGGAAAACUGCAUAUGAGAAGGCAUAUAGAUUGA [salish99_ss2_r3_052] (puzzle: Same State 2) |  |  |  | 0.0637 µM | 0.465 µM | 1.56 µM
12 | GCUGGAACUCACAUGAGGAUCACCCAUGUUCCGGAAACGGCACAGGAUAUCUGUCCGAAAAGGUCAGAGAAGGGUGUAACCAGC [Fiskers NG3ss - 87] (Eterna round: R96, puzzle: Same State NG 3) | 0.137 µM | 0.051 µM | 0.0888 µM |  |  | 
13 | GCUAGGAAUAAAGCCAACAUGAGGAUCACCCAUGUAUGUUGGUAGGAUAUCGUUUGCUUUGCAAACGAGAAGGGCUAACCUAGC [JL SSNG3 1.24] (Eterna round: R96, puzzle: Same State NG 3) | 0.0746 µM | 0.0645 µM | 0.0675 µM |  |  | 
14 | GGAGCCGGCACCGAGGAUAUUCAUAUUAAAACAUGAGGAUCACCCAUGUAGGCCAGAAGGCUUUGGGAGAAGGCGGAUCGGCUCG [Xeonanis - 3] (puzzle: Same State 2) |  |  |  | 0.0253 µM | 0.31 µM | 0.546 µM
15 | AGUCCAGCCUGAGCUGGACAAAAGCAUGUACAUGAGGAUCACCCAUGUUCAUGUACAAGCUUUUUGUUCGUCUUAAA [Zipper 52 - 9] (puzzle: Sensor for hsa-mir-208a) |  |  |  | 0.179 µM | 0.011 µM | 0.431 µM
16 | UGAAUAAUGAUAGGAUAUACAUGAGGAAUCCUCGUAGAAGGAUCAUGACAUGAGGAUCACCCAUGUAGCGCUCGAAAGAGCGCA [Mat - Same State NG 1 - JL mod - D52] (Eterna round: R96, puzzle: Same State NG 1) | 0.186 µM | 0.0549 µM | 0.232 µM |  |  | 

Row | Sequence | apparent KD of MS2 coat protein (input ligand: FMN 200 uM) | apparent KD of MS2 coat protein [1] | apparent KD of MS2 coat protein (input ligand: none) | apparent KD of MS2 coat protein [2] | apparent KD of MS2 coat protein [3] | apparent KD of MS2 coat protein [4]
17 | AUAAUUUAUGCAGGAUAUGAUUAACAUGAGGAUCACCCAUGUGGUGUUGUGAGUAAGGAGAGUGAUCAGAAGGGCAUUUUUUUU [JMF's solution 70] (Eterna round: R96, puzzle: Same State NG 2) | 0.734 µM | 0.391 µM | 0.4 µM |  |  | 
18 | CGUCCGGCCUGUGCUGGCCGGUGGCUUGUACAUGAGGAUCACCCAUGUUCUUGUGCUGGCUGUUUGCUCGUCUUGUG [salish99_mir208a_r3_021] (puzzle: Sensor for hsa-mir-208a) |  |  |  | 0.0502 µM | 0.0226 µM | 0.0612 µM
19 | UUAUUAUUUACAUGAGGAUCACCCAUGUUUUUAUGUCAGAGACAGGAUAUAGAAGUCUCGUUUUACUAGAAGGGUCUUUUUAUU [JR_SSNG3_Sub016] (Eterna round: R96, puzzle: Same State NG 3) | 0.022 µM | 0.0171 µM | 0.022 µM |  |  | 
20 | UUGCUCGUGUGAGGAUAUGCCGCCGUUUCGGCUGCAGAAGGUACUCUUAUACAUGAGGAUCACCCAUGUCUCUGUUGUUUCGUG [salish99_SSNG1_r04_936] (Eterna round: R96, puzzle: Same State NG 1) | 0.0979 µM | 0.0653 µM | 0.0982 µM |  |  | 
21 | UGUUAACAUGAGGAUCACCCAUGUCAAAUGAAGCGAGGAUAUGGAAAGUAAUAAGAUGAACUAGAAGGUGUAGAUG [Altered State 1-21 - Jieux - Same State 1] (puzzle: Same State 1) |  |  |  | 0.0405 µM | 0.0484 µM | 0.0528 µM
22 | CCAACAUACAAUUUAAGAUCACAUGAGGAUCACCCAUGUAUGCAGGAUAUCAGCUCGAAUAGAGCUGAGAAGGGCAAUUUAAUU [SSNG3/1-A1] (Eterna round: R96, puzzle: Same State NG 3) | 0.0947 µM | 0.127 µM | 0.262 µM |  |  | 
23 | GGUCCAGCCUGAGCUGGACAAAAGCAUGUACAUGAGGAUCACCCAUGUUCAUGUACAAGCUUUUUGCUCGUCUUAUA [salish99_208a_r3_045] (puzzle: Sensor for hsa-mir-208a) |  |  |  | 0.542 µM | 0.0154 µM | 0.696 µM
24 | GCGAAAGCCGUAGGAUAUGUAGGAUAUGGCGAGAGCUAAGCUUGGAAGUCACUUCAGCCAGAAGGACAGAAGGACGCCGAAAGG [pwkr ssNG2 2FMN + F9.15] (Eterna round: R96, puzzle: Same State NG 2) | 1.41 µM | 0.387 µM | 0.0462 µM |  |  | 
25 | GCUCGAUGAUAGGCCUACAUGAGGAUCACCCAUGUAAGUGGGCAGGAUAUCUAAAUGCAGAAUGUAGAGAAGGGCCCGUCGAGC [SameState NG3 #54] (Eterna round: R96, puzzle: Same State NG 3) | 0.612 µM | 0.239 µM | 1.46 µM |  |  | 
26 | GUGGUCAGACAUGAGGAUCACCCAUGUGGAAUAAAUAAGGAACAGGAUAUCUAAUAUAGGAUAUAAGAGAAGGGUUGGUUGGUG (Eterna round: R96, puzzle: Same State NG 3) |  | 0.0619 µM |  |  |  | 
27 | AGCAUACAUGAGGAUCACCCAUGUCAACUUAGUCGAGGAUAUGGGCAGCCGUGAGGCGAACCAGAAGGCGAAUUGA [Mat - Same State 1 - Mod of JL - D2] (puzzle: Same State 1) |  |  |  | 0.0185 µM | 0.0281 µM | 0.0262 µM
28 | CUUUUUAAUGCAGGAUAUGAUCAACAUGAGGAUCACCCAUGUGGCGUUGUGAGUAAGGAGAGUGAUCAGAAGGGCAUCUCCUCA [SS-NG2-LRO07] (Eterna round: R96, puzzle: Same State NG 2) | 0.0575 µM | 0.0545 µM | 0.0458 µM |  |  | 
29 | CUCAAACAUGAGGAUCACCCAUGUGUUGUCAUGGGAGGAUAUCCCAGUUCGUUGUAGUCGGGAGAAGGCCUAUGUC [× ×•×ª×• ×ž×“×™× ×” × ×—×ª-13] (puzzle: Same State 1) |  |  |  |  | 0.0549 µM | 
30 | GUGCUCGUGUGAGGAUAUGCUUCCGUUUCGGCUGCAGAAGGUACUAUUAUACAUGAGGAUCACCCAUGUCUCUUUUGUUCGGUG [salish99_SSNG1_r04_911] (Eterna round: R96, puzzle: Same State NG 1) | 0.0669 µM | 0.0382 µM | 0.0588 µM |  |  | 
31 | GCUGCAAUAAACGCCUACAUGAGGAUCACCCAUGUAUGUAGGCAGGAUAUCGUAUGCAAAGCAUACGAGAAGGGCUGUAGUAGC [Mat - Same State NG 3 - JL Mod - D39] (Eterna round: R96, puzzle: Same State NG 3) | 0.0653 µM | 0.0973 µM | 0.112 µM |  |  | 
